Assay results reported in patent publication US9637764B2, “Methods of producing 7-carbon chemicals via carbon chain elongation associated with cyclohexane carboxylate synthesis” (INVISTA North America S.á r.l., priority 2012, dated 2017).

Assays:
Type in all cases: biochemical
[1] = ω-transaminase activity assay, reverse direction (7-aminoheptanoate to pimelate semialdehyde), L-alanine formation by RP-HPLC; conditions: cell free extract, 10 mM 7-aminoheptanoate, 10 mM pyruvate, pH=7.5, 25° C., 4 h; against the empty vector control; FIG. 15
Experimental: (§1) A sequence encoding an N-terminal His-tag was added to the genes from Chromobacterium violaceum, Pseudomonas syringae, Rhodobacter sphaeroides, and Vibrio Fluvialis encoding the ω-transaminases of SEQ ID NOs: 8, 10, 11 and 13, respectively (see FIGS. 7F and 7G) such that N-terminal HIS tagged ω-transaminases could be produced. Each of the resulting modified genes was cloned into a pET21a expression vector under control of the T7 promoter and each expression vector was transformed into a BL21[DE3] E. coli host. The resulting recombinant E. coli strains were cultivated at 37° C. in a 250 mL shake flask culture containing 50 mL LB media and antibiotic selection pressure, with shaking at 230 rpm. Each culture was induced overnight at 16° C. using 1 mM IPTG.
(§2) The pellet from each induced shake flask culture was harvested via centrifugation. Each pellet was resuspended and lysed via sonication. The cell debris was separated from the supernatant via centrifugation and the cell free extract was used immediately in enzyme activity assays.
Enzyme activity assays in the reverse direction (i.e., 7-aminoheptanoate to pimelate semialdehyde) were performed in a buffer composed of a final concentration of 50 mM HEPES buffer (pH=7.5), 10 mM 7-aminoheptanoate, 10 mM pyruvate and 100 μM pyridoxyl 5′ phosphate. Each enzyme activity assay reaction was initiated by adding cell free extract of the ω-transaminase gene product or the empty vector control to the assay buffer containing the 7-aminoheptanoate and incubated at 25° C. for 4 h, with shaking at 250 rpm. The formation of L-alanine from pyruvate was quantified via RP-HPLC.

[2] = ω-transaminase activity assay, forward direction (pimelate semialdehyde to 7-aminoheptanoate), pyruvate formation by RP-HPLC; conditions: for ω-transaminase activity for converting pimelate semialdehyde to 7-aminoheptanoate: cell free extract, 10 mM pimelate semialdehyde, 10 mM L-alanine, pH=7.5, 25° C., 4 h, against the empty vector control, FIG. 16; for ω-transaminase accepts pimelate semialdehyde and synthesizes 7-aminoheptanoate, concluded from the reversibility of the activity: conclusion from confirmed reversibility
Experimental: as §1, §2
Enzyme activity in the forward direction (i.e., pimelate semialdehyde to 7-aminoheptanoate) was confirmed for the transaminases of SEQ ID NO 10, SEQ ID NO 11 and SEQ ID NO 13. Enzyme activity assays were performed in a buffer composed of a final concentration of 50 mM HEPES buffer (pH=7.5), 10 mM pimelate semialdehyde, 10 mM L-alanine and 100 μM pyridoxyl 5′ phosphate. Each enzyme activity assay reaction was initiated by adding a cell free extract of the ω-transaminase gene product or the empty vector control to the assay buffer containing the pimelate semialdehyde and incubated at 25° C. for 4 h, with shaking at 250 rpm. The formation of pyruvate was quantified via RP-HPLC.

[3] = ω-transaminase activity assay, 7-aminoheptanol to 7-oxoheptanol, L-alanine formation by RP-HPLC; conditions: for ω-transaminase activity for converting 7-aminoheptanol to 7-oxoheptanol: cell free extract, 10 mM 7-aminoheptanol, 10 mM pyruvate, pH=7.5, 25° C., 4 h, against the empty vector control, FIG. 19; for ω-transaminase accepts 7-oxoheptanol and forms 7-aminoheptanol, concluded from reversibility: conclusion given the reversibility of the ω-transaminase activity (Example 2)
Experimental: A nucleotide sequence encoding an N-terminal His-tag was added to the Chromobacterium violaceum, Pseudomonas syringae and Rhodobacter sphaeroides genes encoding the ω-transaminases of SEQ ID NOs: 8, 10 and 11, respectively (see FIGS. 7F and 7G) such that N-terminal HIS tagged ω-transaminases could be produced. The modified genes were cloned into a pET21a expression vector under the T7 promoter. Each expression vector was transformed into a BL21[DE3] E. coli host. Each resulting recombinant E. coli strain were cultivated at 37° C. in a 250 mL shake flask culture containing 50 mL LB media and antibiotic selection pressure, with shaking at 230 rpm. Each culture was induced overnight at 16° C. using 1 mM IPTG.
as §2
Enzyme activity assays in the reverse direction (i.e., 7-aminoheptanol to 7-oxoheptanol) were performed in a buffer composed of a final concentration of 50 mM HEPES buffer (pH=7.5), 10 mM 7-aminoheptanol, 10 mM pyruvate, and 100 μM pyridoxyl 5′ phosphate. Each enzyme activity assay reaction was initiated by adding cell free extract of the ω-transaminase gene product or the empty vector control to the assay buffer containing the 7-aminoheptanol and then incubated at 25° C. for 4 h, with shaking at 250 rpm. The formation of L-alanine was quantified via RP-HPLC.

[4] = Carboxylate reductase activity assay, N7-acetyl-7-aminoheptanoate to N7-acetyl-7-aminoheptanal (NADPH consumption, absorbance at 340 nm); conditions: purified enzyme enhanced by the gene product of sfp, 2 mM N7-acetyl-7-aminoheptanoate, 1 mM ATP, 1 mM NADPH, pH=7.5, room temperature, 20 min; against the empty vector control; FIG. 12
Experimental: The activity of each of the N-terminal His-tagged carboxylate reductases of SEQ ID NOs: 3, 6, and 7 (see Examples 4, and FIGS. 7B, 7E, and 7F) for converting N7-acetyl-7-aminoheptanoate to N7-acetyl-7-aminoheptanal was assayed in triplicate in a buffer composed of a final concentration of 50 mM HEPES buffer (pH=7.5), 2 mM N7-acetyl-7-aminoheptanoate, 10 mM MgCl2, 1 mM ATP, and 1 mM NADPH. The assays were initiated by adding purified carboxylate reductase and phosphopantetheine transferase or the empty vector control to the assay buffer containing the N7-acetyl-7-aminoheptanoate then incubated at room temperature for 20 min. The consumption of NADPH was monitored by absorbance at 340 nm.

| ω-transaminase activity for converting 7-aminoheptanoate to pimelate semialdehyde [1] | ω-transaminase activity for converting 7-aminoheptanol to 7-oxoheptanol [3] | ω-transaminase accepts 7-oxoheptanol and forms 7-aminoheptanol, concluded from reversibility [3] | Molecule | ω-transaminase activity for converting pimelate semialdehyde to 7-aminoheptanoate [2] | ω-transaminase accepts pimelate semialdehyde and synthesizes 7-aminoheptanoate, concluded from the reversibility of the activity [2] | carboxylate reductase activity for converting N7-acetyl-7-aminoheptanoate to N7-acetyl-7-aminoheptanal [4] |
| --- | --- | --- | --- | --- | --- | --- |
| accepted 7-aminoheptanote as substrate | accepted 7-aminoheptanol as substrate | accept 7-oxoheptanol as substrate | SEQ ID NO 11: Rhodobacter sphaeroides ω-transaminase, Genbank Accession No. ABA81135.1 | accepted pimelate semialdehyde as substrate | accepted pimelate semialdehyde as substrate and synthesized 7-aminoheptanoate | – |
| accepted 7-aminoheptanote as substrate | accepted 7-aminoheptanol as substrate | accept 7-oxoheptanol as substrate | SEQ ID NO 8: Chromobacterium violaceum ω-transaminase, Genbank Accession No. AAQ59697.1 (protein, listed as Chromobacterium violaceum) MQKQRTTSQWRELDAAHHLHPFTDTASLNQAGARVMTRGEGVYLWDSEGNKIIDGMAGLWCVNVGYGRKDFAEAARRQMEELPFYNTFFKTTHPAVVELSSLLAEVTPAGFDRVFYTNSGSESVDTMIRMVRRYWDVQGKPEKKTLIGRWNGYHGSTIGGASLGGMKYMHEQGDLPIPGMAHIEQPWWYKHGKDMTPDEFGVVAARWLEEKILEIGADKVAAFVGEPIQGAGGVIVPPATYWPEIERICRKYDVLLVADEVICGFGRTGEWFGHQHFGFQPDLFTAAKGLSSGYLPIGAVFVGKRVAEGLIAGGDFNHGFTYSGHPVCAAVAHANVAALRDEGIVQRVKDDIGPYMQKRWRETFSRFEHVDDVRGVGMVQAFTLVKNKAKRELFPDFGEIGTLCRDIFFRNNLIMRACGDHIVSAPPLVMTRAEVDEMLAVAERCLEEFEQTLKARGLA | – | accepted pimelate semialdehyde as substrate and synthesized 7-aminoheptanoate | – |
| accepted 7-aminoheptanote as substrate | accepted 7-aminoheptanol as substrate | accept 7-oxoheptanol as substrate | SEQ ID NO 10: Pseudomonas syringae ω-transaminase, Genbank Accession No. AAY39893.1 (protein, listed as Pseudomonas syringae) MSANNPQTLEWQALSSEHHLAPFSDYKQLKEKGPRIITRAEGVYLWDSEGNKILDGMSGLWCVAIGYGREELADAASKQMRELPYYNLFFQTAHPPVLELAKAISDIAPEGMNHVFFTGSGSEGNDTMLRMVRHYWALKGQPNKKTIISRVNGYHGSTVAGASLGGMTYMHEQGDLPIPGVVHIPQPYWFGEGGDMTPDEFGIWAAEQLEKKILELGVENVGAFIAEPIQGAGGVIVPPDSYWPKIKEILSRYDILFAADEVICGFGRTSEWFGSDFYGLRPDMMTIAKGLTSGYVPMGGLIVRDEIVAVLNEGGDFNHGFTYSGHPVAAAVALENIRILREEKIVERVRSETAPYLQKRLRELSDHPLVGEVRGVGLLGAIELVKDKTTRERYTDKGAGMICRTFCFDNGLIMRAVGDTMIIAPPLVISFAQIDELVEKARTCLDLTLAVLQG | accepted pimelate semialdehyde as substrate | accepted pimelate semialdehyde as substrate and synthesized 7-aminoheptanoate | – |
| – | – | – | SEQ ID NO 3: Mycobacterium smegmatis carboxylate reductase, Genbank Accession No. ABK71854.1 (protein, listed as Mycobacterium smegmatis) MTSDVHDATDGVTETALDDEQSTRRIAELYATDPEFAAAAPLPAVVDAAHKPGLRLAEILQTLFTGYGDRPALGYRARELATDEGGRTVTRLLPRFDTLTYAQVWSRVQAVAAALRHNFAQPIYPGDAVATIGFASPDYLTLDLVCAYLGLVSVPLQHNAPVSRLAPILAEVEPRILTVSAEYLDLAVESVRDVNSVSQLVVFDHHPEVDDHRDALARAREQLAGKGIAVTTLDAIADEGAGLPAEPIYTADHDQRLAMILYTSGSTGAPKGAMYTEAMVARLWTMSFITGDPTPVINVNFMPLNHLGGRIPISTAVQNGGTSYFVPESDMSTLFEDLALVRPTELGLVPRVADMLYQHHLATVDRLVTQGADELTAEKQAGAELREQVLGGRVITGFVSTAPLAAEMRAFLDITLGAHIVDGYGLTETGAVTRDGVIVRPPVIDYKLIDVPELGYFSTDKPYPRGELLVRSQTLTPGYYKRPEVTASVFDRDGYYHTGDVMAETAPDHLVYVDRRNNVLKLAQGEFVAVANLEAVFSGAALVRQIFVYGNSERSFLLAVVVPTPEALEQYDPAALKAALADSLQRTARDAELQSYEVPADFIVETEPFSAANGLLSGVGKLLRPNLKDRYGQRLEQMYADIAATQANQLRELRRAAATQPVIDTLTQAAATILGTGSEVASDAHFTDLGGDSLSALTLSNLLSDFFGFEVPVGTIVNPATNLAQLAQHIEAQRTAGDRRPSFTTVHGADATEIRASELTLDKFIDAETLRAAPGLPKVTTEPRTVLLSGANGWLGRFLTLQWLERLAPVGGTLITIVRGRDDAAARARLTQAYDTDPELSRRFAELADRHLRVVAGDIGDPNLGLTPEIWHRLAAEVDLVVHPAALVNHVLPYRQLFGPNVVGTAEVIKLALTERIKPVTYLSTVSVAMGIPDFEEDGDIRTVSPVRPLDGGYANGYGNSKWAGEVLLREAHDLCGLPVATFRSDMILAHPRYRGQVNVPDMFTRLLLSLLITGVAPRSFYIGDGERPRAHYPGLTVDFVAEAVTTLGAQQREGYVSYDVMNPHDDGISLDVFVDWLIRAGHPIDRVDDYDDWVRRFETALTALPEKRRAQTVLPLLHAFRAPQAPLRGAPEPTEVFHAAVRTAKVGPGDIPHLDEALIDKYIRDLREFGLI | – | – | accepted N7-acetyl-7-aminoheptanoate as substrate |
| accepted 7-aminoheptanote as substrate | – | – | SEQ ID NO 13: Vibrio fluvialis ω-transaminase, Genbank Accession No. AEA39183.1 (protein, listed as Vibrio fluvialis) MNKPQSWEARAETYSLYGFTDMPSLHQRGTVVVTHGEGPYIVDVNGRRYLDANSGLWNMVAGFDHKGLIDAAKAQYERFPGYHAFFGRMSDQTVMLSEKLVEVSPFDSGRVFYTNSGSEANDTMVKMLWFLHAAEGKPQKRKILTRWNAYHGVTAVSASMTGKPYNSVFGLPLPGFVHLTCPHYWRYGEEGETEEQFVARLARELEETIQREGADTIAGFFAEPVMGAGGVIPPAKGYFQAILPILRKYDIPVISDEVICGFGRTGNTWGCVTYDFTPDAIISSKNLTAGFFPMGAVILGPELSKRLETAIEAIEEFPHGFTASGHPVGCAIALKAIDVVMNEGLAENVRRLAPRFEERLKHIAERPNIGEYRGIGFMWALEAVKDKASKTPFDGNLSVSERIANTCTDLGLICRPLGQSVVLCPPFILTEAQMDEMFDKLEKALDKVFAEVA | accepted pimelate semialdehyde as substrate | accepted pimelate semialdehyde as substrate and synthesized 7-aminoheptanoate | – |
